The values below come from paper PMC11514443 (Structure (London, England : 1993), 2019).

In the experiment the target is MORC3-CW E431A mutant (human) (UniProt Q14149). Briefly: other fluorescence titration.
Chain of MORC3-CW E431A mutant (human) (Q14149 401-455 E431A): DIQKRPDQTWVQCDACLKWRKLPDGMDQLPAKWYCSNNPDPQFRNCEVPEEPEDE

For the substance “NS1 peptide trimethylated at K229 (residues 222-230 of NS1)”, the equilibrium dissociation constant (Kd) (usually the constant that tells how readily two partners part at equilibrium) turned out to be 57 µM.
